The supplement of paper PMC12783771
± gives the standard deviation of the averaged measurements.

B1: library; a variant is named by its letters at X, in order (parent)
chain: MNIQIGELAKRTACPVVTIRFYEQEGLLPPPGRSRGNFRLYGEEHVERLQFIRHCRSLDMPLSDVRTLLSYRKRPDQDCGEVXMLLDEHIRQVESRIGALLELKHHLVELREACSGARPAQSCGILQXLSXCVCXTRGTTAHXSD

Key:
[1] = variants of: B1; test: sfGFP reporter fluorescence (15 h) (µM FITC); higher = higher leak; settings: library round: Round 2; ligand: none
Description: (§1)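 Cell-free biosensing: 1 µL Echo-assembled CFE reactions with linear PbrR variant templates (5 nM) and pPbrR-sfGFP reporter, with 1 µM Pb, 30 µM Zn or no ligand; endpoint sfGFP fluorescence after 15 h at 30 °C calibrated as µM FITC. Round 2 ML-predicted PbrR mutants; up to 3 biological replicates.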

[2] = variants of: B1; test: sfGFP reporter fluorescence (15 h) (µM FITC); higher = stronger transcriptional activation; settings: library round: Round 2
Description: as §1

Variant	sfGFP reporter fluorescence [1]	sfGFP reporter fluorescence ([2]; ligand: 1 µM Pb)	sfGFP reporter fluorescence ([2]; ligand: 30 µM Zn)
NMDDP L85I K104V	0.131 ± 0.013	0.417 ± 0.024	1.99 ± 1.7
NTDAP L107C	0.819 ± 0.064	1.7 ± 0.12	3.23 ± 0.041
NIEDP C134E	0.194 ± 0.028	0.316 ± 0.0082	4.73 ± 3.2
NMDDP M60L P61N K104V L107C	0.759 ± 0.1	1.83 ± 0.19	3.54 ± 0.46
NIDDP L107C G124A	0.942 ± 0.1	2.53 ± 0.21	3.41 ± 0.84
TIDDP L107C E109H	0.247 ± 0.016	1.19 ± 0.15	2.03 ± 0.17
TIDDP P61N D64K	0.106 ± 0.013	0.617 ± 0.019	1.75 ± 0.14
NIDSP M60L	0.251 ± 0.048	0.739 ± 0.14	2.25 ± 0.49
NMDAP L107C	2.23 ± 0.28	3.21 ± 0.21	3.29 ± 0.5
NIDDP H105E L107C C134E	2.32 ± 0.044	2.05 ± 0.18	2.82 ± 0.14
NMDDP L107C E109V	2.96 ± 0.17	3.18 ± 0.55	3.51 ± 0.14
NMDDP R96G K104V	0.0669 ± 0.0034	0.0841 ± 0.003	0.58 ± 0.055
NIDDP P61N D64K K104V L107A	0.0923 ± 0.0059	0.215 ± 0.018	1.34 ± 0.1
NMDDP M60L D64T L107C	3.16 ± 0.21	2.93 ± 0.29	4.14 ± 0.31
NTCDP M60L	0.222 ± 0.016	0.784 ± 0.021	2.43 ± 0.27
NMDAP L101V K104V	0.176 ± 0.024	0.55 ± 0.022	2.78 ± 0.34
NMDAK L107C	2.86 ± 0.17	3.46 ± 0.15	3.68 ± 0.19
NIDDP I90L K104V L107C	0.0665 ± 0.003	0.0702 ± 0.0034	0.178 ± 0.014
NMDDA M60L	0.805 ± 0.062	1.88 ± 0.22	3.33 ± 0.49
TIDDP D64K K104V	0.156 ± 0.022	0.472 ± 0.075	2.62 ± 0.29

Variant	sfGFP reporter fluorescence [1]	sfGFP reporter fluorescence ([2]; ligand: 1 µM Pb)	sfGFP reporter fluorescence ([2]; ligand: 30 µM Zn)
NMDAP L85I	0.11 ± 0.012	0.278 ± 0.017	3.11 ± 0.44
NIDDP D64K V108E	0.181 ± 0.026	0.581 ± 0.051	3.32 ± 0.42
NIDDP K104T L107E	0.047 ± 0.0022	0.0442 ± 0.00085	0.0493 ± 0.0021
NIDDP M60L D64K R111L	1.98 ± 0.27	3.14 ± 0.19	3.92 ± 0.41
NTDAP M60L P61N D64K	0.878 ± 0.074	2.33 ± 0.17	3.33 ± 0.36
NMDDP K104V L107S	0.0726 ± 0.0093	0.159 ± 0.014	1.27 ± 0.068
NIEDP L107C	1.74 ± 0.23	2.69 ± 0.47	3.33 ± 0.68
NSAAP	0.0758 ± 0.0055	0.162 ± 0.0077	1.67 ± 0.15
TIDAP L107C G124A	0.27 ± 0.037	1.38 ± 0.23	2.81 ± 0.45
NISDP L107C	2.65 ± 0.43	3.61 ± 0.5	3.33 ± 0.18
NMDDP I3M P61N K104V L107C	0.501 ± 0.013	0.989 ± 0.041	2.79 ± 0.18
TIDSP L107C	0.384 ± 0.026	1.42 ± 0.32	3.28 ± 0.26
NMDAA K104R L107C	2.28 ± 0.3	3.13 ± 0.41	3.83 ± 0.4
NIDDP M60L P61N K104V L107C	0.315 ± 0.042	1.19 ± 0.096	2.16 ± 0.42
NSEPP	0.0629 ± 0.0028	0.145 ± 0.014	1.79 ± 0.34
NIDDP I90L C134E	0.0691 ± 0.0074	0.0913 ± 0.0088	1.77 ± 0.32
NLDDP G124A L129A	0.0419 ± 0.0017	0.0398 ± 0.0017	0.0426 ± 0.0023
NTDDP P61N D64K L107C	2.26 ± 0.67	2.58 ± 0.67	3.04 ± 0.32
NIDDP P61N C134E	0.308 ± 0.021	0.544 ± 0.11	3.19 ± 0.055
NPDAP I90L	0.0467 ± 0.0027	0.04301 ± 0.00034	0.0482 ± 0.0039
